In patent US20210002363A1 (PHANES THERAPEUTICS, published 2021):
Substitutions are numbered along the chain they refer to. Read-outs that look alike come from different tables or passages of the source.

Tests used:
[1] = target: T1, FOLR1 on SK-OV-3 cells (ATCC HTB-77) (Homo sapiens (Human), UniProt P15328 25-234); assay: FACS on SK-OV-3 cells; MFI
T1 construct: Endogenous FOLR1 of the cell line; also called cells that are known to express FOLR1

[2] = target: T2, Recombinant extracellular domain of human FOLR1 (Novoprotein, Cat#: C784) (human, UniProt P15328 25-233, limits assumed); assay: ELISA on immobilized FOLR1 extracellular domain; O.D. 450 nm
T2 construct: Bought reagent; also called recombinant FOLR1; immobilized FOLR1 extracellular domain

[3] = target: T1, FOLR1 on SK-OV-3 cells (ATCC HTB-77); assay: FACS on SK-OV-3 cells; MFI; remark: listed apart in the source
[4] = target: T2, Recombinant extracellular domain of …; assay: ELISA on immobilized FOLR1 extracellular domain; O.D. 450 nm; remark: listed apart in the source
[5] = target: T2, Recombinant extracellular domain of …; assay: as above; remark: listed apart in the source
[6] = target: T1, FOLR1 on SK-OV-3 cells (ATCC HTB-77); assay: FACS on SK-OV-3 cells; MFI; remark: listed apart in the source
[7] = target: T2, Recombinant extracellular domain of …; assay: ELISA on immobilized FOLR1 extracellular domain; O.D. 450 nm; remark: listed apart in the source
[8] = target: T1, FOLR1 on SK-OV-3 cells (ATCC HTB-77); assay: FACS on SK-OV-3 cells; MFI; remark: listed apart in the source
[9] = target: T2, Recombinant extracellular domain of …; assay: ELISA on immobilized FOLR1 extracellular domain; O.D. 450 nm; remark: listed apart in the source
[10] = target: T1, FOLR1 on SK-OV-3 cells (ATCC HTB-77); assay: FACS on SK-OV-3 cells; MFI; remark: listed apart in the source
[11] = target: T2, Recombinant extracellular domain of …; assay: ELISA on immobilized FOLR1 extracellular domain; O.D. 450 nm; remark: listed apart in the source
[12] = target: T1, FOLR1 on SK-OV-3 cells (ATCC HTB-77); assay: FACS on SK-OV-3 cells; MFI; remark: listed apart in the source
[13] = target: T2, Recombinant extracellular domain of …; assay: ELISA on immobilized FOLR1 extracellular domain; O.D. 450 nm; remark: listed apart in the source
[14] = target: T1, FOLR1 on SK-OV-3 cells (ATCC HTB-77); assay: FACS on SK-OV-3 cells; MFI; remark: listed apart in the source

T2 sequence (P15328 25-233 limits assumed): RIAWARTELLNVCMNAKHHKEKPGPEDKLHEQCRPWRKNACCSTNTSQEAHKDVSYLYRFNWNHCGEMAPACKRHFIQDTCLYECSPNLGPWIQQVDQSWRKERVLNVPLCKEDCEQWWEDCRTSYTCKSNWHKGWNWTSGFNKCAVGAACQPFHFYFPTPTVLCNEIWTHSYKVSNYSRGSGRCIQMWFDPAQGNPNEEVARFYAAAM
T1 sequence (P15328 25-234 limits assumed): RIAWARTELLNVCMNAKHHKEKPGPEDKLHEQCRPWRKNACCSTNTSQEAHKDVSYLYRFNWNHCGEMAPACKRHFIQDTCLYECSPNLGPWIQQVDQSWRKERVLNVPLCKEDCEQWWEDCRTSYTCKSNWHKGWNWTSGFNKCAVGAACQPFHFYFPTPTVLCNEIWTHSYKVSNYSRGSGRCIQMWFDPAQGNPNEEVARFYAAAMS

B1: F5-H1L2 (antibody, V domains shown)
VH: EVQLLESGGGLVQPGGSLRLSCAVSGFTFSNYGMSWVRQAPGKGLEWVATISSGGSYTYYPDSVKGRFTISRDNSKNTLYLQMNSLRAEDTAVYYCSTQGSSGYVGYWGQGTLVTVSS
VL: DIQMTQSPSSVSASVGDRVTITCKASQDITNFIGWYQHKPGKAPKLLISYTSILESGVPSRFSGSGSGTDYTLTISSLQPEDFATYYCLQYYNLWTFGGGTKVEIK
notes: also called humanized F5 mAb H1L2
EC50 (read off the curve) [1]: ~0.9 nM
EC50 (read off the curve) [2]: 0.2 to 0.3 nM

B2: F5-H2L2 (antibody, V domains shown)
VH: B1 VH with L5V
VL: B1 VL
notes: also called humanized F5 mAb H2L2
EC50 (read off the curve) [1]: ~0.9 nM
EC50 (read off the curve) [2]: 0.2 to 0.3 nM

B3: F20-H1L2 (antibody, V domains shown)
VH: QVQLVQSGAEVKKPGSSVKVSCKASGYTFASYYLYWVRQAPGQGLEWIGEINPRSGGTNFNEKFKSRATVTVDKSTSTAYMELSSLRSEDTAVYYCSRSGRLRGFYTMDYWGQGTLVTVSS
VL: DIVMTQSPDSLAVSLGERATINCKAGENVGSYVSWYQQKPGQSPKLLIYGASNRYTGVPDRFSGSGSATDFTLTISSLQAEDVAVYYCGQTYRFLTFGQGTKVEIK
notes: also called humanized F20 mAb H1L2
binding result [3]: binds
binding result [4]: binds

B4: F20-H1L3 (antibody, V domains shown)
VH: B3 VH
VL: DIQMTQSPSTLSASVGDRVTITCKAGENVGSYVSWYQQKPGKAPKLLIYGASNRYTGVPARFSGSGSATEFTLTISSLQPDDFATYYCGQTYRFLTFGQGTKVEVK
notes: also called humanized F20 mAb H1L3
EC50 (read off the curve) [5]: ~0.2 nM

B5: F20-H2L4 (antibody, V domains shown)
VH: B3 VH with K74A
VL: B4 VL with D81E
notes: also called humanized F20 mAb H2L4
EC50 (read off the curve) [6]: ~3 nM
EC50 (read off the curve) [7]: ~0.2 nM

B6: F17-H1L2 (antibody, V domains shown)
VH: EVQLVETGGGLIQPGGSLRLSCAASGFTFSDFGMHWIRQAPGKGLEWVAYMSYTPGTFHYADTVKDRFTISRDNSKNTLYLQMNSLRAEDTAVYYCARVHVGTVDYWGQGTLVTVSS
VL: EVVLTQSPATLSLSPGERATLSCRASQNINNNLHWFQQKPGQAPRLLIKYASQSISGIPARFSGSGSGTDFTLTISSLETEDFAVYFCQQSNSWPALTFGQGTKVEIK
notes: also called humanized F17 mAb H1L2
EC50 (read off the curve) [8]: ~0.9 nM
EC50 (read off the curve) [9]: ~0.2 nM

B7: F10-H1L1 (antibody, V domains shown)
VH: EVQLVQSGAEVKKPGSSVKVSCKASGYAFSSSWMNWVRQAPGQGLEWIGRIYPGDGYTHYNGMFKGRASLTADKSTSTGYMELSSLRSEDTAVFFCTRHGDFPYWYFDVWGRGTLVTVSP
VL: DIQMTQSPSTLSASVGDRVTITCRASENIDSYLAWYQQKPGRAPKLLVYAATNLAVGVPSRFSGSGSGTEYTLTISSLQSDDFATYYCQHHYSTPPTFGQGTKLEIK
notes: also called humanized F10 mAb H1L1
EC50 (read off the curve) [10]: ~3 nM
EC50 (read off the curve) [11]: 0.1 to 0.2 nM

B8: F10-H1L2 (antibody, V domains shown)
VH: B7 VH
VL: B7 VL with S80P
notes: also called humanized F10 mAb H1L2
EC50 (read off the curve) [12]: ~3 nM
EC50 (read off the curve) [13]: ~0.3 nM

B9: F10-H2L1 (antibody, V domains shown)
VH: B7 VH with P120S
VL: B7 VL
notes: also called humanized F10 mAb H2L1
EC50 (read off the curve) [14]: ~3 nM
